Here are results for four sequences from the supplement of paper PMC5998384.

Series [1] has as its system HeLa Kyoto. The series is described as follows: solubility change mitosis vs G1/S (difference of NP-40 vs SDS log2 ratios) (log2 ratio difference); higher = more soluble in mitosis.
Series [2] deals with HeLa Kyoto. The series is described as follows: thermal stability score vs G1/S (z-score of summed log2 fold changes over temperatures); higher = more thermally stable than in G1/S.
In series [3] the test system is HeLa Kyoto. The series is described as follows: melting temperature (median over replicates), in situ; higher = more thermally stable.
Series [4] deals with HeLa Kyoto. The series is described as follows: solubility in G1/S (NP-40 vs SDS abundance) (log2 ratio); higher = more soluble. Conditions: cell cycle stage: G1/S.
[5] abbreviates: cell cycle stage: early G1 (4.5 h after nocodazole release).
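For melting temperature (median over replicates), in situ in this document: HeLa Kyoto cells synchronized by double thymidine or nocodazole block, proteins quantified by TMT10plex mass spectrometry, three independent biological replicates.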
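For solubility change mitosis vs G1/S (difference of NP-40 vs SDS log2 ratios) in this document: synchronized HeLa Kyoto cells (double thymidine block for G1/S, nocodazole release for mitosis), protein amounts in NP-40 versus SDS lysates quantified by mass spectrometry, three biological replicates.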
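For solubility in G1/S (NP-40 vs SDS abundance) in this document: HeLa Kyoto cells arrested at G1/S by double thymidine block, proteins quantified by TMT10plex mass spectrometry in mild NP-40 versus SDS extracts, three biological replicates.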
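For thermal stability score vs G1/S (z-score of summed log2 fold changes over temperatures) in this document: synchronized HeLa Kyoto cells, proteins quantified by TMT10plex mass spectrometry, three biological replicates, mitosis taken 0.5 h after nocodazole release, G1/S directly after double thymidine block.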

Regarding “MSLSSGASGGKGVDANPVETYDSGDEWDIGVGNLIIDLDADLEKDQQKLEMSGSKEVGIPAPNAVATLPDNIKFVTPVPGPQGKEGKSKSKRSKSGKDTSKPTPGTSLFTPSEGAASKKEVQGRSGDGANAGGLVAAIAPKGSEKAAKASRSVAGSKKEKENSSSKSKKERSEGVGTCSEKDPGVLQPVPLGGRGGQYDGSAGVDTGAVEPLGSIAIEPGAALNPLGTKPEPEEGENECRLLKKVKSEKMESPVSTPAVLPIHLLVPVVNNDISSPCEQIMVRTRSVGVNTCDVALATEPECLGPCEPGTSVNLEGIVWQETEDGMLVVNVTWRNKTYVGTLLDCTRHDWAPPRFCDSPTSDLEMRNGRGRGKRMRPNSNTPVNETATASDSKGTSNSSKTRAGANSKGRRGSQNSSEHRPPASSTSEDVKASPSSANKRKNKPLSDMELNSSSEDSKGSKRVRTNSMGSATGPLPGTKVEPTVLDRNCPSPVLIDCPHPNCNKKYKHINGLKYHQAHAHTDDDSKPEADGDSEYGEEPILHADLGSCNGASVSQKGSLSPARSATPKVRLVEPHSPSPSSKFSTKGLCKKKLSGEGDTDLGALSNDGSDDGPSVMDETSNDAFDSLERKCMEKEKCKKPSSLKPEKIPSKSLKSARPIAPAIPPQQIYTFQTATFTAASPGSSSGLTATVAQAMPNSPQLKPIQPKPTVMGEPFTVNPALTPAKDKKKKDKKKKESSKELESPLTPGKVCRAEEGKSPFRESSGDGMKMEGLLNGSSDPHQSRLASIKAEADKIYSFTDNAPSPSIGGSSRLENTTPTQPLTPLHVVTQNGAEASSVKTNSPAYSDISDAGEDGEGKVDSVKSKDAEQLVKEGAKKTLFPPQPQSKDSPYYQGFESYYSPSYAQSSPGALNPSSQAGVESQALKTKRDEEPESIEGKVKNDICEEKKPELSSSSQQPSVIQQRPNMYMQSLYYNQYAYVPPYGYSDQSYHTHLLSTNTAYRQQYEEQQKRQSLEQQQRGVDKKAEMGLKEREAALKEEWKQKPSIPPTLTKAPSLTDLVKSGPGKAKEPGADPAKSVIIPKLDDSSKLPGQAPEGLKVKLSDASHLSKEASEAKTGAECGRQAEMDPILWYRQEAEPRMWTYVYPAKYSDIKSEDERWKEERDRKLKEERSRSKDSVPKEDGKESTSSDCKLPTSEESRLGSKEPRPSVHVPVSSPLTQHQSYIPYMHGYSYSQSYDPNHPSYRSMPAVMMQNYPGSYLPSSYSFSPYGSKVSGGEDADKARASPSVTCKSSSESKALDILQQHASHYKSKSPTISDKTSQERDRGGCGVVGGGGSCSSVGGASGGERSVDRPRTSPSQRLMSTHHHHHHLGYSLLPAQYNLPYAAGLSSTAIVASQQGSTPSLYPPPRR [ZNF609]”, the “solubility change mitosis (log2)” value with HeLa Kyoto [1] was 0.204. Further, the thermal stability score was -1.11 in the series with HeLa Kyoto [2] (setting [5]) and 2.18 in the series on HeLa Kyoto [2] (cell cycle stage: mitosis). The melting temperature came to 49.9 °C in the series on HeLa Kyoto [3] (cell cycle stage: G1/S) and 52.1 °C with HeLa Kyoto [3] (cell cycle stage: mitosis). Moreover, the “solubility in G1/S (log2)” value in the series with HeLa Kyoto [4] amounted to 0.0412.
For the sequence “MSMPDAMPLPGVGEELKQAKEIEDAEKYSFMATVTKAPKKQIQFADDMQEFTKFPTKTGRRSLSRSISQSSTDSYSSAASYTDSSDDEVSPREKQQTNSKGSSNFCVKNIKQAEFGRREIEIAEQDMSALISLRKRAQGEKPLAGAKIVGCTHITAQTAVLIETLCALGAQCRWSACNIYSTQNEVAAALAEAGVAVFAWKGESEDDFWWCIDRCVNMDGWQANMILDDGGDLTHWVYKKYPNVFKKIRGIVEESVTGVHRLYQLSKAGKLCVPAMNVNDSVTKQKFDNLYCCRESILDGLKRTTDVMFGGKQVVVCGYGEVGKGCCAALKALGAIVYITEIDPICALQACMDGFRVVKLNEVIRQVDVVITCTGNKNVVTREHLDRMKNSCIVCNMGHSNTEIDVTSLRTPELTWERVRSQVDHVIWPDGKRVVLLAEGRLLNLSCSTVPTFVLSITATTQALALIELYNAPEGRYKQDVYLLPKKMDEYVASLHLPSFDAHLTELTDDQAKYLGLNKNGPFKPNYYRY [AHCYL1]”, in the series with HeLa Kyoto [1], the “solubility change mitosis (log2)” value was -0.119. The thermal stability score in the series with HeLa Kyoto [2] (setting [5]) was -5.66; in the series with HeLa Kyoto [2] (cell cycle stage: mitosis), -9.49. Further, the melting temperature in the series on HeLa Kyoto [3] (cell cycle stage: G1/S) stood at 56.4 °C; with HeLa Kyoto [3] (cell cycle stage: mitosis) it was 54.6 °C. In the series with HeLa Kyoto [4], the “solubility in G1/S (log2)” value was -0.111.
Regarding “MSNEVETSATNGQPDQQAAPKAPSKKEKKKGPEKTDEYLLARFKGDGVKYKAKLIGIDDVPDARGDKMSQDSMMKLKGMAAAGRSQGQHKQRIWVNISLSGIKIIDEKTGVIEHEHPVNKISFIARDVTDNRAFGYVCGGEGQHQFFAIKTGQQAEPLVVDLKDLFQVIYNVKKKEEEKKKIEEASKAVENGSEALMILDDQTNKLKSGVDQMDLFGDMSTPPDLNSPTESKDILLVDLNSEIDTNQNSLRENPFLTNGITSCSLPRPTPQASFLPENAFSANLNFFPTPNPDPFRDDPFTQPDQSTPSSFDSLKSPDQKKENSSSSSTPLSNGPLNGDVDYFGQQFDQISNRTGKQEAQAGPWPFSSSQTQPAVRTQNGVSEREQNGFSVKSSPNPFVGSPPKGLSIQNGVKQDLESSVQSSPHDSIAIIPPPQSTKPGRGRRTAKSSANDLLASDIFAPPVSEPSGQASPTGQPTALQPNPLDLFKTSAPAPVGPLVGLGGVTVTLPQAGPWNTASLVFNQSPSMAPGAMMGGQPSGFSQPVIFGTSPAVSGWNQPSPFAASTPPPVPVVWGPSASVAPNAWSTTSPLGNPFQSNIFPAPAVSTQPPSMHSSLLVTPPQPPPRAGPPKDISSDAFTALDPLGDKEIKDVKEMFKDFQLRQPPAVPARKGEQTSSGTLSAFASYFNSKVGIPQENADHDDFDANQLLNKINEPPKPAPRQVSLPVTKSTDNAFENPFFKDSFGSSQASVASSQPVSSEMYRDPFGNPFA [DAB2]”, the “solubility change mitosis (log2)” value with HeLa Kyoto [1] was -0.113. Further, the figures for the thermal stability score in the series with HeLa Kyoto [2] (setting [5]) and with HeLa Kyoto [2] (cell cycle stage: mitosis) were 2.68 and 5.04, respectively. In addition, the values for the melting temperature with HeLa Kyoto [3] (cell cycle stage: G1/S) and in the series with HeLa Kyoto [3] (cell cycle stage: mitosis) were 48.5 °C and 50.3 °C, respectively. Also, in the series with HeLa Kyoto [4], the “solubility in G1/S (log2)” value came out at 0.277.
In the case of “MSNRVVCREASHAGSWYTASGPQLNAQLEGWLSQVQSTKRPARAIIAPHAGYTYCGSCAAHAYKQVDPSITRRIFILGPSHHVPLSRCALSSVDIYRTPLYDLRIDQKIYGELWKTGMFERMSLQTDEDEHSIEMHLPYTAKAMESHKDEFTIIPVLVGALSESKEQEFGKLFSKYLADPSNLFVVSSDFCHWGQRFRYSYYDESQGEIYRSIEHLDKMGMSIIEQLDPVSFSNYLKKYHNTICGRHPIGVLLNAITELQKNGMNMSFSFLNYAQSSQCRNWQDSSVSYAAGALTVH [MEMO1]”, in the series on HeLa Kyoto [1], the “solubility change mitosis (log2)” value is -0.0409. In addition, the thermal stability score with HeLa Kyoto [2] (setting [5]) was -0.361; with HeLa Kyoto [2] (cell cycle stage: mitosis) it was -0.452. Moreover, the values for the melting temperature in the series on HeLa Kyoto [3] (cell cycle stage: G1/S) and with HeLa Kyoto [3] (cell cycle stage: mitosis) were 53.7 °C and 54.2 °C, respectively. The “solubility in G1/S (log2)” value with HeLa Kyoto [4] came to 0.029.
